We go through eight molecules from PMC5363963 (Biochemistry and Biophysics Reports, 2016).

In experiment [1] the target is synthetic amyloid fibrils composed of recombinant Vλ6 protein Wil. The experiment can be described thus: SPR. A general note: SPR reads the build-up and loss of mass on a sensor chip optically.
The target is the same in experiment [2]. The experiment can be described thus: SPR. This is another data set of the same source.
The target of experiment [3] is synthetic amyloid fibrils composed of Aβ(1-40) peptide. Briefly: pull-down.
Experiment [4] has as its target synthetic amyloid fibrils composed of recombinant Vλ6 protein Wil. The experiment can be described thus: pull-down.
Experiment [5] addresses T1, synthetic amyloid fibrils composed of human islet amyloid polypeptide (human, UniProt P10997 34-70).
T1 peptide (looked up): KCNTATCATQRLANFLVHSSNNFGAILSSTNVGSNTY
Briefly: pull-down.

Like-named read-outs stand apart in the source and are kept apart here. Square brackets hold non-standard residues; d marks the D form. Ends that are not written are not given here.

With GGGYSKGGKGGGKGGKGGGKGGKGGGKGGKG [peptide p5(coil)], the Kd in experiment [1] is 18 nM. Moreover, in experiment [2], the Kd came out at 34 nM; the ka1 (two-state model, first step) was determined as 75000 M⁻¹ s⁻¹; the ka2 (two-state model, second step) turned out to be 7.9e-06 s⁻¹; the kd1 (two-state model, first step) stood at 0.001 s⁻¹. In experiment [2], the kd2 (two-state model, second step) came to 1.5e-05 s⁻¹.

On to GGGYSKGGKGGGKGGKGGGKGGKGGGKGGKG (also: radioiodinated with iodine-125, site not given here) [125I-labeled peptide p5(coil)], for which the ratio of 1 M/0.15 M pulldown data (bound peptide in 1 M NaCl over that in PBS) in experiment [3] came out at 0.07; in experiment [4], 0.02; in experiment [5] it was 0.12.

Turning to VYKVKTKVKTKVKTKVKT (also: radioiodinated with iodine-125, site not given here) [125I-labeled peptide p5(sheet)], the figures for the ratio of 1 M/0.15 M pulldown data (bound peptide in 1 M NaCl over that in PBS) in experiment [3], in experiment [4] and in experiment [5] were 0.21, 0.35 and 0.2, respectively.

In the case of GGGYSKAQKAPAKQAKQPQKAQKAPAKQAKQ [peptide p5(Pro3)], the Kd in experiment [1] worked out at 25 nM. Further, in experiment [2], the Kd turned out to be 71 nM; the ka1 (two-state model, first step) was 120000 M⁻¹ s⁻¹; the ka2 (two-state model, second step) was 0.0122 s⁻¹; the kd1 (two-state model, first step) is 0.045 s⁻¹. Moreover, the kd2 (two-state model, second step) in experiment [2] is 0.0024 s⁻¹.

As to GGGYSKAQKAQAKQAKQAQKAQKAQAKQAKQ [peptide p5], in experiment [4], the percent inhibition of the binding of m6 (125I-p5) by a 1000-fold molar excess came out at 95% and the percent inhibition of the binding of m7 (125I-p5(D)) by a 1000-fold molar excess was determined as 80%. Besides, in experiment [1], the dissociation constant Kd was determined as 3.7 nM. Besides, in experiment [2], the Kd was 15 nM; the ka1 (two-state model, first step) amounted to 480000 M⁻¹ s⁻¹; the ka2 (two-state model, second step) turned out to be 0.0315 s⁻¹; the kd1 (two-state model, first step) is 0.203 s⁻¹. The kd2 (two-state model, second step) in experiment [2] was determined as 0.0011 s⁻¹.

For GGGYSKAQKAPAKQAKQPQKAQKAPAKQAKQ (also: radioiodinated with iodine-125, site not given here) [125I-labeled peptide p5(Pro3)], the figures for the ratio of 1 M/0.15 M pulldown data (bound peptide in 1 M NaCl over that in PBS) in experiment [3], in experiment [4] and in experiment [5] were 0.01, 0.01 and 0.07, respectively.

Turning to VYKVKTKVKTKVKTKVKT [peptide p5(sheet)], the Kd in experiment [1] worked out at 10 nM. Besides, in experiment [2], the equilibrium dissociation constant (Kd) is 25 nM; the ka1 (two-state model, first step) stood at 420000 M⁻¹ s⁻¹; the ka2 (two-state model, second step) stood at 0.007 s⁻¹; the kd1 (two-state model, first step) came out at 0.026 s⁻¹. The kd2 (two-state model, second step) in experiment [2] worked out at 0.0028 s⁻¹.

Take GGG[dY][dS][dK][dA][dQ][dK][dA][dQ][dA][dK][dQ][dA][dK][dQ][dA][dQ][dK][dA][dQ][dK][dA][dQ][dA][dK][dQ][dA][dK][dQ] [peptide p5(D)]: the Kd in experiment [1] turned out to be 5.4 nM. In addition, in experiment [2], the Kd is 22 nM; the ka1 (two-state model, first step) worked out at 550000 M⁻¹ s⁻¹; the ka2 (two-state model, second step) was found to be 0.0074 s⁻¹; the kd1 (two-state model, first step) turned out to be 0.052 s⁻¹. For the same molecule, the kd2 (two-state model, second step) in experiment [2] is 0.0017 s⁻¹.

For orientation: Kd means the concentration at which binding is half-saturated.
